# How the values were obtained:
# Experiment in all cases: purified protein
# Assay type in all cases: biochemical, Homo sapiens
# Conditions in all cases: 1 mM NAD+, 150 mM sodium pyrophosphate pH 7.5, 30 °C
# purified protein [1] = substrate: C[N+](C)(C)CCCC=O
# purified protein [2] = substrate: N=C(N)NCCCC=O
# purified protein [3] = substrate: O=CCc1ccc(O)c(O)c1
# purified protein [4] = substrate: NCCC=O
# purified protein [5] = substrate: NCCCC=O
protein,measurement,setting,value
"human ALDH9A1 (HsALDH9A1) (Homo sapiens) (protein, full-length 494-residue protein, His-tag kept (pCDFDuet, BamHI/XhoI), recombinant from E. coli; silent polymorphism at Ile110 codon) MSTGTFVVSQPLNYRGGARVEPADASGTEKAFEPATGRVIATFTCSGEKEVNLAVQNAKAAFKIWSQKSGMERCRILLEAARIIREREDEIATMECINNGKSIFEARLDIDISWQCLEYYAGLAASMAGEHIQLPGGSFGYTRREPLGVCVGIGAWNYPFQIASWKSAPALACGNAMVFKPSPFTPVSALLLAEIYSEAGVPPGLFNVVQGGAATGQFLCQHPDVAKVSFTGSVPTGMKIMEMSAKGIKPVTLELGGKSPLIIFSDCDMNNAVKGALMANFLTQGQVCCNGTRVFVQKEILDKFTEEVVKQTQRIKIGDPLLEDTRMGPLINRPHLERVLGFVKVAKEQGAKVLCGGDIYVPEDPKLKDGYYMRPCVLTNCRDDMTCVKEEIFGPVMSILSFDTEAEVLERANDTTFGLAAGVFTRDIQRAHRVVAELQAGTCFINNYNVSPVELPFGGYKKSGFGRENGRVTIEYYSQLKTVCVEMGDVESAF",Km,purified protein [1],6 ± 1 µM
same,Vmax,purified protein [1],0.588 µmol/min/mg
same,Km,purified protein [2],21 ± 2 µM
same,Vmax,purified protein [2],0.114 µmol/min/mg
same,Km,purified protein [3],11 ± 1 µM
same,Vmax,purified protein [3],0.03 µmol/min/mg
same,Km,purified protein [4],56 ± 7 µM
same,Vmax,purified protein [4],0.108 µmol/min/mg
same,Km,purified protein [5],67 ± 7 µM
same,Vmax,purified protein [5],0.108 µmol/min/mg
